As usually defined, the IC50 is the concentration that gives 50% inhibition. One may read the Kd as the free concentration of one partner at which half of the binding sites on the other are occupied at equilibrium, for simple one-to-one binding. A low value points to a tighter complex.

This note sets out measurements from US20240317847A1.

For test [1], the target named is human IL-11 (human) (UniProt P20809). The test is described as follows: cell-based or functional assay.
In test [2] the target is murine IL-11 (mouse) (UniProt P47873). In words: cell-based or functional assay.
Chain of murine IL-11 (mouse) (P47873 22-199): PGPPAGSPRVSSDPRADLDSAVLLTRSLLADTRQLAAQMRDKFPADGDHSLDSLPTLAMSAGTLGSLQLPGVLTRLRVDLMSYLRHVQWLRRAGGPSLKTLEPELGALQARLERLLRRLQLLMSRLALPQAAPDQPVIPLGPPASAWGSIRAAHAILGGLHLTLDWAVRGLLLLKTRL
Test [3] deals with human IL-11 (human) (UniProt P20809). The test is described as follows: Di-complex ELISA, canine IL11RA-hFc binding to immobilized hIL-11, competition. Background: An ELISA detects its analyte on a solid surface through an enzyme-linked reagent.
Test [4] has the same target. The test is described as follows: Tri-complex ELISA, hIL-11 + mIL-11Ra-Fc + hgp130-Fc, inhibition of complex formation.
The target of test [5] is murine IL-11 (mouse) (UniProt P47873). The test is described as follows: Di-complex ELISA, canine IL11RA-hFc binding to immobilized mIL-11, competition.
Test [6] shares this target. The test is described as follows: Tri-complex ELISA, mIL-11 + mIL-11Ra-Fc + mgp130-Fc, inhibition of complex formation.
The target in test [7] is human IL-11 (human) (UniProt P20809). The test is described as follows: SPR (Biacore), antibody captured, IL-11 at single concentration 200 nM. On the technique in general: In SPR one partner is held on a chip, and binding of the other changes the refractive index at the surface.
For test [8], the target named is murine IL-11 (mouse) (UniProt P47873). The description is as above.
For test [9], the target named is IL-11 [218-IL from R&D Systems, Inc.] (human) (UniProt P20809). The test is described as follows: cell-based or functional assay.
Chain of IL-11 [218-IL from R&D Systems, Inc.] (human) (P20809 22-199 limits assumed): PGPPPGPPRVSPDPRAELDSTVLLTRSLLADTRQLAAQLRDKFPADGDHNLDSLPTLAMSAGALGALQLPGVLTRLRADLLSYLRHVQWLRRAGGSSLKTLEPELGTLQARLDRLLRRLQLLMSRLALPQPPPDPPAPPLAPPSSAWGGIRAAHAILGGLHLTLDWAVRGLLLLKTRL
Test [10] addresses murine IL-11 (Invigate, e.g., lot #C210819-09) (mouse) (UniProt P47873). In words: cell-based or functional assay.
Test [11] deals with human IL-11 (Invigate, e.g., lot #C121021-19) (human) (UniProt P20809). In words: cell-based or functional assay.
Chain of human IL-11 (Invigate, e.g., lot #C121021-19) (human) (P20809 22-199): as the sequence (P20809 22-199 limits assumed) above
Test [12] concerns the target murine IL-11 (Invigate, e.g., lot #C210819-09) (mouse) (UniProt P47873). The test is described as follows: SPR, Biacore T200, 25 C; antibody captured via anti-mouse Fc, IL-11 as analyte, 1:1 Langmuir fit.
The target in test [13] is human IL-11 (Invigate, e.g., lot #C121021-19) (human) (UniProt P20809). The test is described as above.
For test [14] the target is unchanged. In words: Tri-complex ELISA: antibody titrated against 8 nM human IL-11, 2 nM human gp130-human-Fc and 2 nM murine IL11RA-murine-Fc.
For test [15] the target is unchanged. The test is described as follows: Di-complex ELISA: biotinylated human IL-11 on streptavidin plate, antibody titrated against 2 nM canine IL11RA-human-Fc (competitor).
For test [16], the target named is murine IL-11 (Invigate, e.g., lot #C210819-09) (mouse) (UniProt P47873). In words: Tri-complex ELISA: antibody titrated against 8 nM murine IL-11, 2 nM murine gp130-human-Fc and 2 nM murine IL11RA-murine-Fc.
Chain of murine IL-11 (Invigate, e.g., lot #C210819-09) (mouse) (P47873 22-199): as the sequence (P47873 22-199) above
Test [17] shares this target. In words: Di-complex ELISA: biotinylated murine IL-11 on streptavidin plate, antibody titrated against 2 nM canine IL11RA-human-Fc (competitor).

Chain of human IL-11 (human) (P20809 22-199): as the sequence (P20809 22-199 limits assumed) above

Regarding GTX52814 (antibody), the values for the Efficacy (%), Stat3 reporter gene assay with human IL-11 (human) [1] and in the test with murine IL-11 (mouse) [2] were 5.1% and 75.5%, respectively. In addition, the Efficacy (%) with human IL-11 (human) [3] was determined as 74.9%; with human IL-11 (human) [4], 36.9%; with murine IL-11 (mouse) [5], 89.9%; with murine IL-11 (mouse) [6] it was 106%. For the same substance, the IC50 in the test with human IL-11 (human) [3] is 1.9 nM; with human IL-11 (human) [4], 14 nM; in the test with murine IL-11 (mouse) [5] it was 4.7 nM; with murine IL-11 (mouse) [6], 17 nM. Moreover, the figures for the Kd in the test with human IL-11 (human) [7] and with murine IL-11 (mouse) [8] were 3.3 nM and 2 nM, respectively.

For the substance “IL-11 function blocking polyclonal antibody AF-418-NA (R&D Systems, Inc.)”, the secretion of VEGF-A, primary human fibroid slice assay (ng/mg protein) in [9] amounted to 17.3.

LS-C104441 (antibody): the Efficacy (%), Stat3 reporter gene assay with human IL-11 (human) [1] worked out at 42.6%; with murine IL-11 (mouse) [2] it was 88%. For the same substance, the IC50, Stat3 reporter gene assay with murine IL-11 (mouse) [2] is 3.9 nM. In addition, the Efficacy (%) with human IL-11 (human) [3] was found to be 71.5%; with human IL-11 (human) [4], 65.6%; with murine IL-11 (mouse) [5], 91.2%; with murine IL-11 (mouse) [6], 98.4%. Besides, the IC50 with human IL-11 (human) [3] came out at 5.3 nM; with human IL-11 (human) [4], 20 nM; in the test with murine IL-11 (mouse) [5], 3.5 nM; with murine IL-11 (mouse) [6], 3.8 nM. For the same substance, the Kd with human IL-11 (human) [7] is 3.9 nM; with murine IL-11 (mouse) [8], 2.2 nM.

LS-C193526 (antibody): the Efficacy (%), Stat3 reporter gene assay amounted to 52.7% with human IL-11 (human) [1] and 88.3% with murine IL-11 (mouse) [2]. Further, the values for the IC50, Stat3 reporter gene assay in the test with human IL-11 (human) [1] and with murine IL-11 (mouse) [2] were 50 nM and 5.6 nM, respectively. Moreover, the Efficacy (%) with human IL-11 (human) [3] came out at 90.1%; in the test with human IL-11 (human) [4], 78.5%; in the test with murine IL-11 (mouse) [5] it was 96.2%; with murine IL-11 (mouse) [6], 90.3%. The IC50 with human IL-11 (human) [3] is 10 nM; with human IL-11 (human) [4], 10 nM; in the test with murine IL-11 (mouse) [5], 6.5 nM; with murine IL-11 (mouse) [6] it was 6.6 nM. The values for the Kd in the test with human IL-11 (human) [7] and in the test with murine IL-11 (mouse) [8] were 6.3 nM and 6.2 nM, respectively.

For MA5-23711 (antibody), the figures for the Efficacy (%), Stat3 reporter gene assay with human IL-11 (human) [1] and in the test with murine IL-11 (mouse) [2] were 19.9% and 47.6%, respectively. In addition, the Efficacy (%) with human IL-11 (human) [3] was 51.1%; in the test with human IL-11 (human) [4], 34.1%; in the test with murine IL-11 (mouse) [5] it was 70.5%; in the test with murine IL-11 (mouse) [6], 62.3%. Also, the IC50 with human IL-11 (human) [3] came out at 60 nM; with human IL-11 (human) [4], 19 nM; in the test with murine IL-11 (mouse) [5], 29 nM. Besides, the figures for the Kd with human IL-11 (human) [7] and with murine IL-11 (mouse) [8] were 3.6 nM and 2 nM, respectively.

As to “TPP-14250 (R&D Systems, #MAB218) (antibody)”, the Efficacy (%), Stat3 reporter gene assay, mouse Il11ra, 3.13 nM mIL-11 in [10] was 69.1%. In addition, the IC50 [M], Stat3 reporter gene assay, HEK 293F transfected with mouse Il11ra, 3.13 nM mIL-11 in test [10] came out at 1.42e-07 M. In addition, the Efficacy (%), Stat3 reporter gene assay, human IL11RA, 0.78 nM hIL-11 in test [11] is 27.1%. The IC50 [M], Stat3 reporter gene assay, HEK 293F transfected with human IL11RA, 0.78 nM hIL-11 in test [11] stood at 2.41e-10 M. For the same substance, the Kd in test [12] is 3.8 nM; in test [13] it was 19 nM. Besides, the Efficacy (%) in test [14] worked out at 67.2%; in test [15] it was 67.2%; in test [16] it was 60.9%; in test [17], 92.3%. In addition, the IC50 in test [14] was 38 nM; in test [15], 7.4 nM; in test [16], 17 nM; in test [17], 1.3 nM.
